Measurements: publication PMC5812716

B1: MukF FN2 (domain or fragment)
chain: MSEFSQTVPELVAWARKNDFSISLPVDRLSFLLAVATLNGERLDGEMSEGELVDAFRHVSDAFEQTSETIGVRANNAINDMVRQRLLNRFTSEQAEGNAIYRLTPLGIGITDYYIRQREFSTLRLSMQLSIVAGELKRAADAAEEGGDEFHWHRNVYAPLKYSVAEIFDSIDLTQRLMDEQQQQVKDDIAQLLNKDWRAAISSCELLLSETSGTLRELQDTLEAAGDKLQANLLRIQDATMTHDDLHFVDRLVFDLQSKLDRIISWGQQSIDLWIGYDRHVHKFIRT
modifications: not checked
B2: MukB (natural protein)
chain: MIERGKFRSLTLINWNGFFARTFDLDELVTTLSGGNGAGKSTTMAAFVTALIPDLTLLHFRNTTEAGATSGSRDKGLHGKLKAGVCYSMLDTINSRHQRVVVGVRLQQVAGRDRKVDIKPFAIQGLPMSVQPTQLVTETLNERQARVLPLNELKDKLEAMEGVQFKQFNSITDYHSLMFDLGIIARRLRSASDRSKFYRLIEASLYGGISSAITRSLRDYLLPENSGVRKAFQDMEAALRENRMTLEAIRVTQSDRDLFKHLISEATNYVAADYMRHANERRVHLDKALEFRRELHTSRQQLAAEQYKHVDMARELAEHNGAEGDLEADYQAASDHLNLVQTALRQQEKIERYEADLDELQIRLEEQNEVVAEAIERQQENEARAEAAELEVDELKSQLADYQQALDVQQTRAIQYNQAIAALNRAKELCHLPDLTADCAAEWLETFQAKELEATEKMLSLEQKMSMAQTAHSQFEQAYQLVVAINGPLARNEAWDVARELLREGVDQRHLAEQVQPLRMRLSELEQRLREQQEAERLLADFCKRQGKNFDIDELEALHQELEARIASLSDSVSNAREERMALRQEQEQLQSRIQSLMQRAPVWLAAQNSLNQLSEQCGEEFTSSQDVTEYLQQLLEREREAIVERDEVGARKNAVDEEIERLSQPGGSEDQRLNALAERFGGVLLSEIYDDVSLEDAPYFSALYGPSRHAIVVPDLSQVTEHLEGLTDCPEDLYLIEGDPQSFDDSVFSVDELEKAVVVKIADRQWRYSRFPEVPLFGRAARESRIESLHAEREVLSERFATLSFDVQKTQRLHQAFSRFIGSHLAVAFESDPEAEIRQLNSRRVELERALSNHENDNQQQRIQFEQAKEGVTALNRILPRLNLLADDSLADRVDEIRERLDEAQEAARFVQQFGNQLAKLEPIVSVLQSDPEQFEQLKEDYAYSQQMQRDARQQAFALTEVVQRRAHFSYSDSAEMLSGNSDLNEKLRERLEQAEAERTRAREALRGHAAQLSQYNQVLASLKSSYDTKKELLNDLQRELQDIGVRADSGAEERARIRRDELHAQLSNNRSRRNQLEKALTFCEAEMDNLTRKLRKLERDYFEMREQVVTAKAGWCAVMRMVKDNGVERRLHRRELAYLSADDLRSMSDKALGALRLAVADNEHLRDVLRMSEDPKRPERKIQFFVAVYQHLRERIRQDIIRTDDPVEAIEQMEIELSRLTEELTSREQKLAISSRSVANIIRKTIQREQNRIRMLNQGLQNVSFGQVNSVRLNVNVRETHAMLLDVLSEQHEQHQDLFNSNRLTFSEALAKLYQRLNPQIDMGQRTPQTIGEELLDYRNYLEMEVEVNRGSDGWLRAESGALSTGEAIGTGMSILVMVVQSWEDESRRLRGKDISPCRLLFLDEAARLDARSIATLFELCERLQMQLIIAAPENISPEKGTTYKLVRKVFQNTEHVHVVGLRGFAPQLPETLPGTDEAPSQAS

Assays:
MukF FN2 (E. coli) [1] = test: SEC-MALS; Superose 6 10/300 GL or Superose 12 10/300; 50 mM HEPES pH 7.5, 100 mM NaCl, 1 mM DTT, 1 mM EDTA; 20 °C; mixtures at stated monomer:dimer molar ratios; some runs with 1 mM ATP
[2] = biological target: fluorescently labelled FN2, FN10, FN3 and FC2 (E. coli); test: fluorescence correlation spectroscopy (FCS) + fluorescence polarisation; range of Kds told for the four Cy5-labelled MukF fragments together (FN2, FN10 by FCS; FN3, FC2 by FPA); MukB titrated
MukF FN2 (E. coli) [3] = biological target: MukF FN2 (E. coli)
MukF FC2 (E. coli) = settings: scale: % of the maximal ATPase obtained with MukF

Binder | stoichiometry N (MukF FN2 (E. coli) [1]) | Kd [2] [µM] | MukB ATPase (steady state, phosphate release) with saturating FN2 at a 2.5-fold molar excess, against MukF (% of maximum ATPase) (MukF FN2 (E. coli) [3]) | MukB ATPase (steady state, phosphate release) with saturating FC2 at a 2.5-fold molar excess, against MukF (MukF FC2 (E. coli))
B1 | 2 | – | – | –
B2 | – | 0.009 to 0.026 | 33 | 60
